From patent US20040120943

Biological target: rabbit thrombomodulin (UniProt Q8HZ48)

Substance: variant thrombin W215A/E217A (WE)
- activity toward protein C on addition of thrombomodulin: the WE variant thrombin recovers almost its full activity toward protein C upon binding to thrombomodulin
